Drawing on US20090149389A1, this text covers % of … [SEQ ID NO: 124] Reaction Velocity, Profile-1 @ = 30 µm (kinase profiler assay) and Profile-1 @ = 100 µm (kinase profiler assay) for seven molecules.

Test in all cases: cell-based or functional assay
Assay [1] addresses MAPKAP kinase II (MK2) (UniProt P49137).
Assay [2] deals with PKC β 1 (h) (human (h)), P05771.
Assay [3] addresses PKG1α (h) (human (h)), Q13976.

Where no end group is shown, it is not given here. [ ]: non-standard residue; d: D form.

PKG1α (h) (human (h)), Q13976, sequence (Q13976 whole entry): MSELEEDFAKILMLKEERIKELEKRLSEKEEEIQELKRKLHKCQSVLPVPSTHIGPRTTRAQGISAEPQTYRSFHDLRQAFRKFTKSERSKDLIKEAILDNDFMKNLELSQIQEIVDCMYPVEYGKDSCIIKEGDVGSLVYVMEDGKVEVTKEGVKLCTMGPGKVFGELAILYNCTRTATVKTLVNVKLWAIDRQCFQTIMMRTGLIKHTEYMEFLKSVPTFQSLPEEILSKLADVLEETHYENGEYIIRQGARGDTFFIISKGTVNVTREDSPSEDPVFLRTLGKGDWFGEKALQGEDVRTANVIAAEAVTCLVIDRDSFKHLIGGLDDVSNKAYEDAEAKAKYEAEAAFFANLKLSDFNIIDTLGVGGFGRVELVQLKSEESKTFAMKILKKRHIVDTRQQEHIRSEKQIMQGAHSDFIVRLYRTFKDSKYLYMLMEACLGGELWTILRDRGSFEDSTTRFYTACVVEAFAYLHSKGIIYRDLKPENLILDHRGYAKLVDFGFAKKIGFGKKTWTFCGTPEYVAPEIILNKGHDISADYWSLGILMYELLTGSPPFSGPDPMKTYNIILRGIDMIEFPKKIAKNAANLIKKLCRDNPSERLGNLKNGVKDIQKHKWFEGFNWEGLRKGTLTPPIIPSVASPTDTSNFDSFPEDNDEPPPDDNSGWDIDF
MAPKAP kinase II (MK2), sequence (P49137 whole entry): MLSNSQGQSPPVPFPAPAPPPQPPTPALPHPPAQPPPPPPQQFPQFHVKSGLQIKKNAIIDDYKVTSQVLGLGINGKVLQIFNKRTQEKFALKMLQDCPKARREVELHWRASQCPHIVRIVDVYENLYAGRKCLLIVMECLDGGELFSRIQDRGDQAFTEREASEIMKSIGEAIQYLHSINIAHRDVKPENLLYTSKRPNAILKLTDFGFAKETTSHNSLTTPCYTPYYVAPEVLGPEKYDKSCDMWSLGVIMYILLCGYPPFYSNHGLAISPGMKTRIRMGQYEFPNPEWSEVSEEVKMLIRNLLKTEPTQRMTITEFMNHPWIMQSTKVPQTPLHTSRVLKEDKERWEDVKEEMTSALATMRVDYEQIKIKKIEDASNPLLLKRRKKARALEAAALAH
PKC β 1 (h) (human (h)), P05771, sequence (P05771 whole entry): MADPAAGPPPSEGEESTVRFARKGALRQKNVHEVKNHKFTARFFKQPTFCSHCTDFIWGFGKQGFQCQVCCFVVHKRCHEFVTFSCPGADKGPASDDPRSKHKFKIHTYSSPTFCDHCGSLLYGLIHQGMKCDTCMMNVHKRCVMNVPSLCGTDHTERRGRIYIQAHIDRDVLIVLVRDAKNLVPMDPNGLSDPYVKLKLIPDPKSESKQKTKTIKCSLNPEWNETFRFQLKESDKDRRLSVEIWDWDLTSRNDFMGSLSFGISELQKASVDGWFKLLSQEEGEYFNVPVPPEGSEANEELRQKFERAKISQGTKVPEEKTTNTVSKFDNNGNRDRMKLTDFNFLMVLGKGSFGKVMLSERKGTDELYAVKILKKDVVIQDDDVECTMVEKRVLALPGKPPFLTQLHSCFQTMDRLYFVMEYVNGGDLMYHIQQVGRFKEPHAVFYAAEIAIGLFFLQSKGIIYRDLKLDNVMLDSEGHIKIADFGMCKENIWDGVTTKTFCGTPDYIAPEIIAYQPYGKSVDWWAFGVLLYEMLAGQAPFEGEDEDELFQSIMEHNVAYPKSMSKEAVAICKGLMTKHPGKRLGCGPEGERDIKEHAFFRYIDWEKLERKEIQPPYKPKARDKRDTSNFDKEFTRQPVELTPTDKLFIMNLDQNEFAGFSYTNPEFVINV

B1: KALNRQLGdVAA (peptide, from a related filing)
peptide: KALNRQLG[dV]AA
Consider B1, for which the % of … [SEQ ID NO: 124] Reaction Velocity at an Inhibitor Concentration of 100 µM in assay [1] was found to be 260%.

B2: … (peptide)
peptide: WLRRIKAWLRRIKALNRQLGVAA
Regarding B2, the Profile-1 @ = 30 µm (kinase profiler assay) turned out to be 8 in assay [2] and 16 in assay [3].

B3: KALdNRQLGVAA (peptide, from a related filing)
peptide: KAL[dN]RQLGVAA
Consider B3, for which the % of … [SEQ ID NO: 124] Reaction Velocity at an Inhibitor Concentration of 100 µM in assay [1] came out at 95%.

B4: KAd… (peptide, from a related filing)
peptide: KA[dL]NRQLGVAA
In assay [1], B4 gave a % of … [SEQ ID NO: 124] Reaction Velocity at an Inhibitor Concentration of 100 µM of 146%.

B5: KALNdRQLGVAA (peptide, from a related filing)
peptide: KALN[dR]QLGVAA
Molecule B5 had a % of … [SEQ ID NO: 124] Reaction Velocity at an Inhibitor Concentration of 100 µM in assay [1] of 306%.

B6: … (peptide)
peptide: FAKLAARLYRKALARQLGVAA
Regarding B6, the Profile-1 @ = 100 µm (kinase profiler assay) in assay [2] stood at 73; in assay [3], 12.

B7: … (peptide)
peptide: KAFAKLAARLYRKALARQLGVAA
Take B7: the Profile-1 @ = 100 µm (kinase profiler assay) in assay [2] was found to be 23; in assay [3], 25.
